Earlier results, collected in article PMC6651453.
Where two headings read alike, the source gives them in different places.

Key:
[1] = molecular target: TPP1 89-544 (Homo sapiens) (UniProt Q96AP0); test: fluorescence anisotropy and thermophoresis
[2] = molecular target: TIN2 2-202 (Homo sapiens) (UniProt Q9BSI4); test: fluorescence polarization
[3] = molecular target: TIN2 2-202 (Homo sapiens) (UniProt Q9BSI4); test: fluorescence polarization; remark: listed apart in the source
[4] = molecular target: POT1 330-634 (Homo sapiens) (UniProt Q9NUX5); test: isothermal titration calorimetry
Chain of UniProt Q9NUX5 (Q9NUX5 330-634): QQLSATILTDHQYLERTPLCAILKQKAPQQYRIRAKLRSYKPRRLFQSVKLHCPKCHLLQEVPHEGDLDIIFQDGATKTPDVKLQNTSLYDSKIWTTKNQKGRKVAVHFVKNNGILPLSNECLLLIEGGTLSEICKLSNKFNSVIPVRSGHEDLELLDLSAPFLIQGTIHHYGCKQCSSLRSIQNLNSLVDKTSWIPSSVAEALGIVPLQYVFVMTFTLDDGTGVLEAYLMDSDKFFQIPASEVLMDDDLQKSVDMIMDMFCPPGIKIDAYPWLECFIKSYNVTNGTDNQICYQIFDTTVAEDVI

TIN2 (Homo sapiens) = TIN2 (Homo sapiens) (UniProt Q9BSI4); test: thermophoresis
TPP1 TBM1 (Homo sapiens) [5] = molecular target: TPP1 TBM1 (Homo sapiens) (UniProt Q96AP0); test: fluorescence polarization
TPP1 TBM1 (Homo sapiens) [6] = molecular target: TPP1 TBM1 (Homo sapiens) (UniProt Q96AP0); test: fluorescence polarization; remark: listed apart in the source

With TIN2 (from UniProt Q9BSI4) as the substance, how does the Kd [1] read?
Its Kd is 2800 nM.

Which results are given for TRF2 TBM2 (from UniProt Q15554)?
Kd [2]: 1100 nM; Kd [3]: 2700 nM

With TPP1 255-337 (from UniProt Q96AP0) as the substance, how does the Kd [4] read?
Its Kd is 120 nM.

Which Kd (TIN2 (Homo sapiens)) does the source give for TRF1 (from UniProt P54274) here?
The Kd was 240 nM.

For TRF2 (from UniProt Q15554), which Kd (TIN2 (Homo sapiens)) is on record?
Its Kd is 360 nM.

With TIN2 2-202 (from UniProt Q9BSI4) as the substance, how does the Kd (TPP1 TBM1 (Homo sapiens) [5]) read?
The Kd was 140 nM.

And the Kd (TPP1 TBM1 (Homo sapiens) [6])?
Its Kd is 520 nM.
